For three substances, affinity relative to BARD1^ARD-BRCTs, fold, fold affinity relative to BARD1 ARD-BRCTs (fold affinity vs BARD1 ARD-BRCTs) and response (Fnorm [1/1000]) results are on record in paper PMC10639053.

For data set [1], the target named is unmodified mono-nucleosome (human) (UniProt P0C0S8). The experiment in a line: MST; 5' FAM-labelled nucleosomes (20 nM) with a dilution series of protein (0.122-4000 nM or 0.122-2000 nM), 50 mM HEPES pH 7.5, 150 mM NaCl, 0.1 mg/ml BSA, 10% glycerol, 0.02% NP40, 1 mM DTT, room temperature 30 min; one-site total binding fit.
The test system of data set [2] is BRCA1 deltaExon11;BARD1 full length (human;human). The experiment in a line: MST. Conditions: Kd in Table S2, not in material, EMSA: 50 mM Tris pH 7.5, 150 mM NaCl, 0.02% NP40, 0.1 mg/ml BSA, 10% glycerol, 1 mM DTT, 8% sucrose, on ice 1 h, MST: 50 mM HEPES pH 7.5, 150 mM NaCl. Background: A gel shift assay detects complexes by their altered migration in electrophoresis.

Data set [3] deals with 6xHis-MBP–BARD1^425–777 (UniProt Q99728). Kind of data set: MST. Particulars: read at the highest titrant concentration (4000 nM 6xHis-MBP–BARD1ARD-BRCTs); 20 nM 5′ FAM-labelled nucleosomes; amplitude-normalised; mean of three …; parent: est. 10; read off a plot.
Data set [4] concerns the target human Flag-BRCA1^ΔExon11:6xHis-FL BARD1 complex, P38398-5;Q99728. Kind of data set: MST. Particulars: read at the highest titrant concentration (2000 nM Flag-BRCA1ΔExon11:6xHis–BARD1); 20 nM 5′ FAM-labelled nucleosomes; amplitude-normalised; mean of three …; parent: est. 14; read off a plot.

Take “human Flag-BRCA1^ΔExon11:6xHis-FL BARD1 complex (from UniProt P38398-5 1-721; Q99728 1-777)”: the affinity relative to BARD1^ARD-BRCTs, fold in data set [1] was determined as 2 fold. unmodified mono-nucleosome: the fold affinity relative to BARD1 ARD-BRCTs (fold affinity vs BARD1 ARD-BRCTs) in data set [2] came out at 2.

As to “unmodified mono-nucleosome (from UniProt P0C0S8;P33778;P68431;P62805) H2A:E61A; H2A:E91A; H2A:E92A; H2B:E105A”, the results for the response (Fnorm [1/1000]) in data set [3] and in data set [4] were 1.5 and 5.7, respectively.
